# According to article PMC7746637 (Nature chemical biology, 2020):
# Where two headings read alike, the source gives them in different places.
# B1: K2P4.1b (residues 1-290) as a C-terminal fusion to mCherry, Strep-tag II and His6 (pPIC-K2P4.1b-mC-S-H) (domain or fragment, human, UniProt Q9NYG8-2 1-290, looked up)
# chain: MTTAPQEPPARPLQAGSGAGPAPGRAMRSTTLLALLALVLLYLVSGALVFRALEQPHEQQAQRELGEVREKFLRAHPCVSDQELGLLIKEVADALGGGADPETQSTSQSSHSAWDLGSAFFFSGTIITTIGYGNVALRTDAGRLFCIFYALVGIPLFGILLAGVGDRLGSSLRHGIGHIEAIFLKWHVPPELVRVLSAMLFLLIGCLLFVLTPTFVFCYMEDWSKLEAIYFVIVTLTTVGFGDYVAGADPRQDSPAYQPLVWFWILLGLAYFASVLTTIGNWLRVVSRRT
# B2: K2P4.1b (TRAAK, longer isoform, truncated, residues 1-290), expressed with tags at both termini, tags removed (domain or fragment, human, UniProt Q9NYG8-2 1-290, looked up)
# chain: MTTAPQEPPARPLQAGSGAGPAPGRAMRSTTLLALLALVLLYLVSGALVFRALEQPHEQQAQRELGEVREKFLRAHPCVSDQELGLLIKEVADALGGGADPETQSTSQSSHSAWDLGSAFFFSGTIITTIGYGNVALRTDAGRLFCIFYALVGIPLFGILLAGVGDRLGSSLRHGIGHIEAIFLKWHVPPELVRVLSAMLFLLIGCLLFVLTPTFVFCYMEDWSKLEAIYFVIVTLTTVGFGDYVAGADPRQDSPAYQPLVWFWILLGLAYFASVLTTIGNWLRVVSRRT
# Tests used:
# Test in all cases: native MS
# [1] = target: K2P4.1a (TRAAK, shorter isoform, truncated, residues 1-264), tags removed (human)
# [2] = target: the molecule itself
# [3] = target: the molecule itself; remark: listed apart in the source
molecule,measurement,setting,value
"K2P4.1a (TRAAK, shorter isoform, truncated, residues 1-264), tags removed (domain or fragment)",stoichiometry N,[1],2
B1,stoichiometry N,[2],2
B2,stoichiometry N,[3],2
